The values that follow come from patent publication US20230303695A1 (SHANGHAI XBH BIOTECHNOLOGY, published 2023).

One may read the Kd as a measure of binding affinity in units of concentration. As a reminder, the koff is a measure of how fast the partners let go of each other. One may read the kon as the second-order rate constant of association.

The chains are these.
T1: recombinant human IGSF8 extracellular domain tagged by a human Fc region (IGSF8-hFc) (human, UniProt Q969P0 28-579, biotin label in Examples 17, 18 and 28 (site not given))
T1 construct: also called IGSF8-Fc fusion protein; IGSF8-hFc-biotin; not shown: human Fc region
T1 sequence: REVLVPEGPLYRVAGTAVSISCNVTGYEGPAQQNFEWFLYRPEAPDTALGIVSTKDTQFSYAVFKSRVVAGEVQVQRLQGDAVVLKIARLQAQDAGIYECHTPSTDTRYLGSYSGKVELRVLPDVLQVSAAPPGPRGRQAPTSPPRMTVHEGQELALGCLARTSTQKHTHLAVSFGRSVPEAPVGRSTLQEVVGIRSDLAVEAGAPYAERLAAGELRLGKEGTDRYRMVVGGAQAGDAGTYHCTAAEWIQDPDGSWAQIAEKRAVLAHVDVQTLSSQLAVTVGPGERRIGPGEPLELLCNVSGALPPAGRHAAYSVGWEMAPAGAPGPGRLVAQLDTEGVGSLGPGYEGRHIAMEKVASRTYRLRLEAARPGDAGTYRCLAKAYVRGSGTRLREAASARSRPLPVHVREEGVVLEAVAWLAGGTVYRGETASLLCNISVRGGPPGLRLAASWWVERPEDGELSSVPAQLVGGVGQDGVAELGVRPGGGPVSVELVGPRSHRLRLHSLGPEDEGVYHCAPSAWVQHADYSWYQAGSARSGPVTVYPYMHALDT

T2: IGSF8 extracellular domain (ED) (Homo sapiens (Human), UniProt Q969P0 28-579)
T2 construct: also called IGSF8 ECD
T2 sequence: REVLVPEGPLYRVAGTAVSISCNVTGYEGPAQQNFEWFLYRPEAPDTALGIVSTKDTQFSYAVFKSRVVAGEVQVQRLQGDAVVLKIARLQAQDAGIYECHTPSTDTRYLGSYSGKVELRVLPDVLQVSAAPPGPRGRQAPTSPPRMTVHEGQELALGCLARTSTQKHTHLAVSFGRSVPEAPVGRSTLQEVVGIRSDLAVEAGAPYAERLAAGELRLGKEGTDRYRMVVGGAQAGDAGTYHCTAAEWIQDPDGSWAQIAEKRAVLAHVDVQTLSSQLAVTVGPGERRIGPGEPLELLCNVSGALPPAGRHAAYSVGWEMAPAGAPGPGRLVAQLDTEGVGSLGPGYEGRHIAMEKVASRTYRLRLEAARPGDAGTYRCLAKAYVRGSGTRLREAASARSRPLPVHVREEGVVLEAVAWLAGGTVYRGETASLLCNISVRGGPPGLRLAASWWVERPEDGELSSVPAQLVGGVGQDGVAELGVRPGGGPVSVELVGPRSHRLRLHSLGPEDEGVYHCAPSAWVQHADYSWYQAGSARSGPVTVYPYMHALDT

B1: L1-26 (antibody, V domains shown)
VH: QVQLVESGGGVVQPGRSLRLSCAASGFTFSTYGMHWVRQAPGKGLEWVAVIWDDGSYKYYGDSVKGRFTISRDNSKNTLYLQMNSLRAEDTAVYYCARDGSGWGYAFDIWGQGTLVTVSS
VL: DIQLTQSPSSLSASVGDRVTITCQASQDISPYLNWYQHKPGKAPKPLVFGSPNLETGVPSRFSASGSGTDFTLTISSLQPEDFATYYCQQYDSFPYTFGQGTKVEIK
B2: L1-27 (antibody, V domains shown)
VH: QVQLVESGGGVVQPGRSLRLSCAASGFTFSTYGMHWVRQAPGKGLEWVAVIWDDGSYKYYGDSVKGRFTISRDNSKNTLYLQMNSLRAEDTAVYYCARDGSGWGYAFDIWGQGTLVTVSS
VL: DIQLTQSPSSLSASVGDRVTITCQASQDISYNLNWYQHKPGKAPKPLVFGSPNLETGVPSRFSASGSGTDFTLTISSLQPEDFATYYCQQYDSFPYTFGQGTKVEIK
B3: L1-31 (antibody, V domains shown)
VH: QVQLVESGGGVVQPGRSLRLSCAASGFTFSTYGMHWVRQAPGKGLEWVAVIWDGGKYKYYGDSVKGRFTISRDNSKNTLYLQMNSLRAEDTAVYYCARDGSGWGYAFDIWGQGTLVTVSS
VL: DIQLTQSPSSLSASVGDRVTITCQASQDIGPWLNWYQHKPGKAPKPLVFRSPNLETGVPSRFSASGSGTDFTLTISSLQPEDFATYYCQQYDSFPYTFGQGTKVEIK
B4: L1-30 (antibody, V domains shown)
VH: QVQLVESGGGVVQPGRSLRLSCAASGFTFSTYGMHWVRQAPGKGLEWVAVIWDDGSYKYYGDSVKGRFTISRDNSKNTLYLQMNSLRAEDTAVYYCARDGSGWGYAFDIWGQGTLVTVSS
VL: DIQLTQSPSSLSASVGDRVTITCQASQDIGPWLNWYQHKPGKAPKPLVFGADNLETGVPSRFSASGSGTDFTLTISSLQPEDFATYYCQQYDSFPYTFGQGTKVEIK
B5: L1-28 (antibody, V domains shown)
VH: QVQLVESGGGVVQPGRSLRLSCAASGFTFSTYGMHWVRQAPGKGLEWVAVIWDDGSYKYYGDSVKGRFTISRDNSKNTLYLQMNSLRAEDTAVYYCARDGSGWGYAFDIWGQGTLVTVSS
VL: DIQLTQSPSSLSASVGDRVTITCQASQDIEWWLNWYQHKPGKAPKPLIYGSPNLETGVPSRFSGSGSGTDFTFTISSLQPEDIATYYCQQYDSFPYTFGQGTKVEIK
B6: L1-29 (antibody, V domains shown)
VH: QVQLVESGGGVVQPGRSLRLSCAASGFTFSTYGMHWVRQAPGKGLEWVAVIWDDGSYKYYGDSVKGRFTISRDNSKNTLYLQMNSLRAEDTAVYYCARDGSGWGYAFDIWGQGTLVTVSS
VL: DIQLTQSPSSLSASVGDRVTITCQASQDIGPWLNWYQHKPGKAPKPLVFDAPNLETGVPSRFSASGSGTDFTLTISSLQPEDFATYYCQQYDSFPYTFGQGTKVEIK
B7: L1-32 (antibody, V domains shown)
VH: QVQLVESGGGVVQPGRSLRLSCAASGFTFSTYGMHWVRQAPGKGLEWVAVIWDGGSYKYYGDSVKGRFTISRDNSKNTLYLQMNSLRAEDTAVYYCARDGSGWGYAFDIWGQGTLVTVSS
VL: DIQLTQSPSSLSASVGDRVTITCQASQDIGPWLNWYQHKPGKAPKPLVFGSPNLETGVPSRFSASGSGTDFTLTISSLQPEDFATYYCQQYDSFPYTFGQGTKVEIK
B8: L1-33 (antibody, V domains shown)
VH: QVQLVESGGGVVQPGRSLRLSCAASGFTFSTYGMHWVRQAPGKGLEWVAVIWDGGKYKYYGDSVKGRFTISRDNSKNTLYLQMNSLRAEDTAVYYCARDGSGWGYAFDIWGQGTLVTVSS
VL: DIQLTQSPSSLSASVGDRVTITCQASQDIGPWLNWYQHKPGKAPKPLVFGSPNLETGVPSRFSASGSGTDFTLTISSLQPEDFATYYCQQYDSFPYTFGQGTKVEIK
B9: Antibody C12 (antibody, V domains shown)
VH: EVQLVESGGGLVQPGGSLRLSCAASGFTFSKYKMSWVRQAPGKGLEWVSTIAPSGGGTRYADSVKGRFTISRDNSKNTLYLQMNSLRAEDTAVYYCARGGHFSNPWGQGTLVTVSS
VL: DVVMTQSPLSLPVTLGQPASISCRSSQSLVHTDGDTYLNWYQQRPGQSPRRLIYKVSKRDSGVPDRFSGSGSGTDFTLKISRVEAEDVGVYYCMQGIKRPYTLGQGTKLEIKR
notes: also called anti-IGSF8 C12
B10: Antibody C11 (antibody, V domains shown)
VH: EVQLVESGGGLVQPGGSLRLSCAASGFTFSRYRMYWVRQAPGKGLEWVSSISSSGGRTKYADSVKGRFTISRDNSKNTLYLQMNSLRAEDTAVYYCARGVRYCSSPSCSRGPRYAMDVWGKGTTVTVSS
VL: DIQMTQSPSSLSASVGDRVTITCRASYVIRNDLSWYQQKPGKAPKLLIYGTSSLHNGVPSRFSGSGYGTYFTLTISSLQPEDFGTYYCLQDDKYPLTFGGGTKVEIKR
notes: also called anti-IGSF8 C11
B11: Antibody C4 (antibody, V domains shown)
VH: QVQLLQSGGGLVQPGGSLRLSCAASGFTFSRYRMGWVRQAPGKGLEWVSSIARSGGRTYYADSVKGRFTISRDNSKNTLYLQMNSLRAEDTAVYYCARGVRYCSSPSCSRGPRYAMDVWGKGTTVTVSS
VL: EIVMTQSPSSVSASVGDRVTITCRASQGISSWLAWYQQKPGKAPKLLIYAASSLQSGVPSRFSGSGSGTDFTLTISSLQPEDFATYYCQQANSFPITFGQGTRLEIKR
notes: also called anti-IGSF8 C4
B12: Antibody C3 (antibody, V domains shown)
VH: QVQLVESGGGLVQPGGSLRLSCAASGFTFSHYPMRWVRQAPGKGLEWVSSIRRSGGRTKYADSVKGRFTISRDNSKNTLYLQMNSLRAEDTAVYYCARDATGRHYNGMDVWGKGTTVTVSS
VL: DVVMTQSPSSLSASVGDRVTITCRTSQVIGTSLNWYQQKPGRAPRLLIYSASNLQSGVPSRFSGSGHGTQFTLTISSLQPEDFATYSCQQSSRVPHTFGQGTKLEMRR
notes: also called anti-IGSF8 C3
B13: Antibody C5 (antibody, V domains shown)
VH: EVQLVQSGGGLVQPGGSLRLSCAASGFTFSRYRMAWVRQAPGKGLEWVSNITRSGGVTRYADSVKGRFTISRDNSKNTLYLQMNSLRAEDTAVYYCARDPNRVTAISSHYGMDVWGKGTTVTVSS
VL: EIVLTQSPSTLSASVGDRVTISCRASQSISRWLAWYQQKPGQAPRLLIYDASNRATGVPARFSVSGSETDSTLTISSLEPEDFAMYYCQQRSNWPPMYTFGQGTKLEIKR
notes: also called anti-IGSF8 C5
B14: Antibody C1 (antibody, V domains shown)
VH: QVQLLQSGGGLVQPGGSLRLSCAASGFTFSRYRMSWVRQAPGKGLEWVSRISRSGGATAYADSVKGRFTISRDNSKNTLYLQMNSLRAEDTAVYYCARDATGRHYNGMDVWGRGTLVTVSS
VL: EIALTQSPSSLSASVGDRVTITCRASQTITRHLNWFQQKPGKAPNLLIHGTSALQTGVPPRFSGGGSGTDFTLTINSLQPEDFGTYYCQQSHTKPWTFGPGTKVEIKR
notes: also called anti-IGSF8 C1
B15: Antibody C2 (antibody, V domains shown)
VH: EVQLLQSGGGLVQPGGSLRLSCAASGFTFSSYPMNWVRQAPGKGLEWVSRISRSGGRTSYADSVKGRFTISRDNSKNTLYLQMNSLRAEDTAVYYCARDATRRHYNGMDVWGKGTTVTVSS
VL: DVVMTQSPATLSLSPGERASLSCRASRSVGKYLAWYQQKPGQAPRLLFYYASLRAGDIPSRFTASGSGTDFTLTISRLEPEDFAVYYCQQYGSSPRTFGQGTKLEMKR
notes: also called anti-IGSF8 C2
B16: Antibody C7 (antibody, V domains shown)
VH: EVQLEESGGGLVQPGGSLRLSCAASGFTFSSYPMNWVRQAPGKGLEWVSRISRSGGRTSYADSVKGRFTISRDNSKNTLYLQMNSLRAEDTAVYYCARDATRRHYNGMDVWGKGTTVTVSS
VL: ETTLTQSPATLSLSPGERASLSCRASRSVGKYLAWYQQKPGQAPRLLFYYASLRAGDIPSRFTASGSGTDFTLTISRLEPEDFAVYYCQQYGSSPRTFGQGTKLEMKR
notes: also called anti-IGSF8 C7
B17: Antibody C10 (antibody, V domains shown)
VH: EVQLLESGGGLVQPGGSLRLSCAASGFTFSRYRMYWVRQAPGKGLEWVSTISRSGGRTVYADSVKGRFTISRDNSKNTLYLQMNSLRAEDTAVYYCARDATGRHYNGMDVWGQGTLVTV
VL: ETTLTQSPATLSVSPGERATLSCRASQSVSSNVAWYQQKPGQAPRLLMFGSGTRATGIPARFSGSGSGTEFTLTISSLQSEDFAAYYCQQYNDWPSFGQGTRVEIKG
notes: also called anti-IGSF8 C10

The target of one assay is T1, recombinant human IGSF8 extracellular …. The assay can be described thus: SPR, Ab captured. Here is the method: The binding affinities of the L1 and L2 antibodies to IGSF8 recombinant protein were determined by surface plasmon resonance (SPR). Briefly, anti-human Fab antibody was imobilized on acarboxyl-derivatized SPR chip surface, and the antibodies were captured on the resulting surface at 5 μg/ml for 30 seconds.
For B1, the Kd turned out to be 987 pM, the koff is 0.000497 s⁻¹ and the kon was 503000 M⁻¹ s⁻¹.

As for B2, the Kd is 1880 pM, the off-rate constant (koff) was 0.000835 s⁻¹ and the kon stood at 444000 M⁻¹ s⁻¹.

On to B3, for which the Kd is 3.71 pM, the koff stood at 7.8e-07 s⁻¹ and the kon was found to be 210000 M⁻¹ s⁻¹.

With B4, the Kd came to 6.42 pM, the dissociation rate constant (koff) came out at 3.03e-06 s⁻¹ and the on-rate constant (kon) turned out to be 472000 M⁻¹ s⁻¹.

B5: the dissociation constant (Kd) was 1.17 pM, the koff is 4.28e-07 s⁻¹ and the on-rate constant (kon) came to 367000 M⁻¹ s⁻¹.

For B6, the equilibrium dissociation constant (Kd) came to 11.2 pM, the off-rate (koff) was 4.25e-06 s⁻¹ and the association rate constant (kon) was determined as 381000 M⁻¹ s⁻¹.

Consider B7, for which the Kd stood at 21 pM, the koff was found to be 6.56e-06 s⁻¹ and the kon amounted to 312000 M⁻¹ s⁻¹.

As for B8, the dissociation constant (Kd) is 29 pM, the koff is 8.01e-06 s⁻¹ and the kon came out at 276000 M⁻¹ s⁻¹.

The target of another assay is T2, IGSF8 extracellular domain (ED). The assay can be described thus: ELISA on IGSF8 extracellular domain. In general terms: ELISA stands for enzyme-linked immunosorbent assay.
For the molecule B9, the binding result is “binds”.

For the molecule B10, the binding result is “binds”.

With B11, the binding result is “binds”.

With B12, the binding result was “binds”.

For B13, the binding result is “binds”.

As for B14, the binding result is listed as “binds”.

In the case of B15, the binding result is recorded as “binds”.

As to B16, the binding result is “binds”.

On to B17, for which the binding result was “binds”.
